pKd: −log10 of the molar value.
Key:
[1] = target: N-WASPC in complex with Alexa647-labeled EspFU R′5 (UniProt O08816); test: SEC
EspFU R′4-5 = EspFU R′4-5 (UniProt P0DJ88); test: ITC
EspFU R′1-5 = EspFU R′1-5 (UniProt P0DJ88); test: ITC
EspFU R′5 = EspFU R′5 (UniProt P0DJ88); test: ITC
EspFU R′5, sequence (P0DJ88 221-267): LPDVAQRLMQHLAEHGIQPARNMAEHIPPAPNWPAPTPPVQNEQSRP

WASP GBD (residues 242–310), sequence (P42768 242-310): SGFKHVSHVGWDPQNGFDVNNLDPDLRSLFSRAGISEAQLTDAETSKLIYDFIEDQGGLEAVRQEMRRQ
EspFU R′1-5, sequence (P0DJ88 80-314): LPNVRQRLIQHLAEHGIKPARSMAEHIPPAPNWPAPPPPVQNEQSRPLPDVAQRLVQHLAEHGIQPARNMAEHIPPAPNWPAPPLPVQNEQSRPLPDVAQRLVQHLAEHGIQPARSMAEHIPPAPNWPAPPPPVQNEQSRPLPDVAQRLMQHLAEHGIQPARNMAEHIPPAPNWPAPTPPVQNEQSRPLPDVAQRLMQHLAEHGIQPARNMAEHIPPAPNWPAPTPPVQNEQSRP
EspFU R′4-5, sequence (P0DJ88 221-314): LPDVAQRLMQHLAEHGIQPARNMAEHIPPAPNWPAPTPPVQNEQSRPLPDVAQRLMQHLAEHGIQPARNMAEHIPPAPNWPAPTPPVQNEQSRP
N-WASPC in complex with Alexa647-labeled EspFU R′5, sequence (O08816 193-501, chain 1 of 2): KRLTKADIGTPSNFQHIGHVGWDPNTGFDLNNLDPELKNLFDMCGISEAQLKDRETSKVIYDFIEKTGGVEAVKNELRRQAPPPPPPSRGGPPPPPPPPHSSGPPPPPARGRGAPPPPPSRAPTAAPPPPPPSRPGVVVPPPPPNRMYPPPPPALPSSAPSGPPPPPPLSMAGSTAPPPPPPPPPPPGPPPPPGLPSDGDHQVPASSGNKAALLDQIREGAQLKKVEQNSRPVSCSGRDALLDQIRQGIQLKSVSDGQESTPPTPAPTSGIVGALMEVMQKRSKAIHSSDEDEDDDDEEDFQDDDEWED
N-WASPC in complex with Alexa647-labeled EspFU R′5, sequence (P0DJ88 221-267, chain 2 of 2, further chain): as the sequence (P0DJ88 221-267) above

Substance	percent of the EspFU shifted into the EspFU-N-WASP-Arp2/3 complex [1] [%]	pKd (EspFU R′4-5)	stoichiometry N (EspFU R′4-5)	pKd (EspFU R′1-5)	stoichiometry N (EspFU R′1-5)	pKd (EspFU R′5)	stoichiometry N (EspFU R′5)
Arp2/3 complex	60	–	–	–	–	–	–
WASP GBD (residues 242–310) (from UniProt P42768 242-310) (domain or fragment)	–	7.02	1.8	7.08	5.7	7.05	1

From publication PMC2567903
